Tests used:
Assay in all cases: cell-based or functional assay
[1] = target: HIV-1 clade C strain 426c Env on Env-pseudotyped virus produced in 293T cells (HIV-1)
[2] = target: HIV-1 Env 426c.TM (N276D.N460D.N463D), Env-pseudotyped virus produced in 293S GnTI- cells (Man5-enriched) (HIV-1 clade C strain 426c)
[3] = target: HIV-1 426c.TM (N276D/N460D/N463D) Env on Env-pseudotyped virus produced in 293s/GnTI-/- cells (Man5-enrichment) (HIV-1)
[4] = target: CH0505TF.gly4 Env, Env-pseudotyped virus produced in 293S GnTI- cells (Man5-enriched) (HIV-1)
[5] = target: HIV-1 426c.SM (N276D) Env on Env-pseudotyped virus produced in 293T cells (HIV-1)
[6] = target: HIV-1 Env 426c.TM (N276D.N460D.N463D), Env-pseudotyped virus produced in 293T cells (HIV-1 clade C strain 426c)
[7] = target: CH0505TF.G458Y Env, Env-pseudotyped virus produced in 293T cells (HIV-1)
[8] = target: CH0505TF Env, Env-pseudotyped virus produced in 293T cells (HIV-1)
[9] = target: HIV-1 clade C strain 426c Env on Env-pseudotyped virus produced in 293s/GnTI-/- cells (Man5-enrichment) (HIV-1)
[10] = target: CH0505.w4.3 Env, Env-pseudotyped virus produced in 293T cells (HIV-1)
[11] = target: HIV-1 Env 426c.SM (N276D), Env-pseudotyped virus produced in 293T cells (HIV-1 clade C strain 426c)
[12] = target: HIV-1 Env 426c.TM4 (S278R.G471S.N460D.N463D), Env-pseudotyped virus produced in 293T cells (HIV-1 clade C strain 426c)
[13] = target: CH0505TF.gly3.276 Env, Env-pseudotyped virus produced in 293T cells (HIV-1)
[14] = target: HIV-1 Env 426c.DM (N460D.N463D), Env-pseudotyped virus produced in 293S GnTI- cells (Man5-enriched) (HIV-1 clade C strain 426c)
[15] = target: CH0505TF.G458Y Env, Env-pseudotyped virus produced in 293S GnTI- cells (Man5-enriched) (HIV-1)
[16] = target: HIV-1 426c.TM (N276D/N460D/N463D) Env on Env-pseudotyped virus produced in 293T cells (HIV-1)
[17] = target: CH0505TF.gly3.276 Env, Env-pseudotyped virus produced in 293S GnTI- cells (Man5-enriched) (HIV-1)
[18] = target: HIV-1 Env 426c.SM (N276D), Env-pseudotyped virus produced in 293S GnTI- cells (Man5-enriched) (HIV-1 clade C strain 426c)
[19] = target: CH0505TF.gly3.461 Env, Env-pseudotyped virus produced in 293S GnTI- cells (Man5-enriched) (HIV-1)
[20] = target: HIV-1 426c.SM (N276D) Env on Env-pseudotyped virus produced in 293s/GnTI-/- cells (Man5-enrichment) (HIV-1)
[21] = target: HIV-1 426c.DM (N460D/N463D) Env on Env-pseudotyped virus produced in 293T cells (HIV-1)
[22] = target: HIV-1 Env 426c, Env-pseudotyped virus produced in 293T cells (HIV-1 clade C strain 426c)
[23] = target: CH0505TF.gly3.197 Env, Env-pseudotyped virus produced in 293T cells (HIV-1)
[24] = target: HIV-1 426c.DM (N460D/N463D) Env on Env-pseudotyped virus produced in 293s/GnTI-/- cells (Man5-enrichment) (HIV-1)
[25] = target: CH0505TF.gly3.197 Env, Env-pseudotyped virus produced in 293S GnTI- cells (Man5-enriched) (HIV-1)
[26] = target: CH0505TF Env, Env-pseudotyped virus produced in 293S GnTI- cells (Man5-enriched) (HIV-1)
[27] = target: HIV-1 Env 426c, Env-pseudotyped virus produced in 293S GnTI- cells (Man5-enriched) (HIV-1 clade C strain 426c)
[28] = target: HIV-1 Env 426c.TM4 (S278R.G471S.N460D.N463D), Env-pseudotyped virus produced in 293S GnTI- cells (Man5-enriched) (HIV-1 clade C strain 426c)
[29] = target: HIV-1 Env 426c.DM (N460D.N463D), Env-pseudotyped virus produced in 293T cells (HIV-1 clade C strain 426c)
[30] = target: CH0505TF.gly4 Env, Env-pseudotyped virus produced in 293T cells (HIV-1)
[31] = target: CH0505TF.gly3.461 Env, Env-pseudotyped virus produced in 293T cells (HIV-1)

| Substance | ID50/IC50 in TZM-bl [1] [µg/mL] | IC50 (µg/ml) in TZM-bl [2] [µg/mL] | ID50/IC50 in TZM-bl [3] [µg/mL] | IC50 (µg/ml) in TZM-bl [4] [µg/mL] | ID50/IC50 in TZM-bl [5] [µg/mL] | IC50 (µg/ml) in TZM-bl [6] [µg/mL] | IC50 (µg/ml) in TZM-bl [7] [µg/mL] | IC50 (µg/ml) in TZM-bl [8] [µg/mL] | ID50/IC50 in TZM-bl [9] [µg/mL] | IC50 (µg/ml) in TZM-bl [10] [µg/mL] | IC50 (µg/ml) in TZM-bl [11] [µg/mL] | IC50 (µg/ml) in TZM-bl [12] [µg/mL] | IC50 (µg/ml) in TZM-bl [13] [µg/mL] | IC50 (µg/ml) in TZM-bl [14] [µg/mL] | IC50 (µg/ml) in TZM-bl [15] [µg/mL] | ID50/IC50 in TZM-bl [16] [µg/mL] | IC50 (µg/ml) in TZM-bl [17] [µg/mL] | IC50 (µg/ml) in TZM-bl [18] [µg/mL] | IC50 (µg/ml) in TZM-bl [19] [µg/mL] | ID50/IC50 in TZM-bl [20] [µg/mL] | other results |
| --- | --- | --- | --- | --- | --- | --- | --- | --- | --- | --- | --- | --- | --- | --- | --- | --- | --- | --- | --- | --- | --- |
| 4E10 (antibody) | 3.32 | 4 | 4 | 12.3 | 1.52 | 0.98 | 8 | 22 | 4 | > 50 | 1.52 | 1.66 | 17 | 3.7 | 10 | 0.98 | 13 | 3.8 | 12 | 3.8 | ID50/IC50 in TZM-bl [21]: 1 µg/mL; IC50 (µg/ml) in TZM-bl [22]: 3.32 µg/mL; IC50 (µg/ml) in TZM-bl [23]: 21 µg/mL; ID50/IC50 in TZM-bl [24]: 3.7 µg/mL; IC50 (µg/ml) in TZM-bl [25]: 14 µg/mL; IC50 (µg/ml) in TZM-bl [26]: 10 µg/mL; IC50 (µg/ml) in TZM-bl [27]: 4 µg/mL; IC50 (µg/ml) in TZM-bl [28]: 1.6 µg/mL; IC50 (µg/ml) in TZM-bl [29]: 1 µg/mL; IC50 (µg/ml) in TZM-bl [30]: 14 µg/mL; IC50 (µg/ml) in TZM-bl [31]: 16 µg/mL |
| 10-1074 (antibody) | 0.05 | 0.03 | 0.03 | > 25 | 0.12 | 0.16 | > 25 | > 25 | 0.03 | > 25 | 0.12 | 0.06 | > 25 | 0.03 | > 25 | 0.16 | > 25 | 0.04 | > 25 | 0.04 | ID50/IC50 in TZM-bl [21]: 0.1 µg/mL; IC50 (µg/ml) in TZM-bl [22]: 0.05 µg/mL; IC50 (µg/ml) in TZM-bl [23]: > 25 µg/mL; ID50/IC50 in TZM-bl [24]: 0.03 µg/mL; IC50 (µg/ml) in TZM-bl [25]: > 25 µg/mL; IC50 (µg/ml) in TZM-bl [26]: > 25 µg/mL; IC50 (µg/ml) in TZM-bl [27]: 0.03 µg/mL; IC50 (µg/ml) in TZM-bl [28]: 0.02 µg/mL; IC50 (µg/ml) in TZM-bl [29]: 0.1 µg/mL; IC50 (µg/ml) in TZM-bl [30]: > 25 µg/mL; IC50 (µg/ml) in TZM-bl [31]: > 25 µg/mL |
| 2219 (antibody) | > 25 | > 25 | > 25 | > 25 | > 25 | > 25 | > 25 | > 25 | > 25 | > 25 | > 25 | > 25 | > 25 | > 25 | > 25 | > 25 | > 25 | > 25 | > 25 | > 25 | ID50/IC50 in TZM-bl [21]: > 25 µg/mL; IC50 (µg/ml) in TZM-bl [22]: > 25 µg/mL; IC50 (µg/ml) in TZM-bl [23]: > 25 µg/mL; ID50/IC50 in TZM-bl [24]: > 25 µg/mL; IC50 (µg/ml) in TZM-bl [25]: > 25 µg/mL; IC50 (µg/ml) in TZM-bl [26]: > 25 µg/mL; IC50 (µg/ml) in TZM-bl [27]: > 25 µg/mL; IC50 (µg/ml) in TZM-bl [28]: > 25 µg/mL; IC50 (µg/ml) in TZM-bl [29]: > 25 µg/mL; IC50 (µg/ml) in TZM-bl [30]: > 25 µg/mL; IC50 (µg/ml) in TZM-bl [31]: > 25 µg/mL |
| 2557 (antibody) | > 25 | > 25 | > 25 | > 25 | > 25 | > 25 | > 25 | > 25 | > 25 | > 25 | > 25 | > 25 | > 25 | > 25 | > 25 | > 25 | > 25 | > 25 | > 25 | > 25 | ID50/IC50 in TZM-bl [21]: > 25 µg/mL; IC50 (µg/ml) in TZM-bl [22]: > 25 µg/mL; IC50 (µg/ml) in TZM-bl [23]: > 25 µg/mL; ID50/IC50 in TZM-bl [24]: > 25 µg/mL; IC50 (µg/ml) in TZM-bl [25]: > 25 µg/mL; IC50 (µg/ml) in TZM-bl [26]: > 25 µg/mL; IC50 (µg/ml) in TZM-bl [27]: > 25 µg/mL; IC50 (µg/ml) in TZM-bl [28]: > 25 µg/mL; IC50 (µg/ml) in TZM-bl [29]: > 25 µg/mL; IC50 (µg/ml) in TZM-bl [30]: > 25 µg/mL; IC50 (µg/ml) in TZM-bl [31]: > 25 µg/mL |
| 3074 (antibody) | > 25 | > 25 | > 25 | 5.6 | > 25 | > 25 | 9.4 | > 25 | > 25 | 0.02 | > 25 | > 25 | 14.1 | > 25 | > 25 | > 25 | 4.8 | 23 | 10.2 | 23 | ID50/IC50 in TZM-bl [21]: > 25 µg/mL; IC50 (µg/ml) in TZM-bl [22]: > 25 µg/mL; IC50 (µg/ml) in TZM-bl [23]: > 25 µg/mL; ID50/IC50 in TZM-bl [24]: > 25 µg/mL; IC50 (µg/ml) in TZM-bl [25]: > 25 µg/mL; IC50 (µg/ml) in TZM-bl [26]: > 25 µg/mL; IC50 (µg/ml) in TZM-bl [27]: > 25 µg/mL; IC50 (µg/ml) in TZM-bl [28]: > 25 µg/mL; IC50 (µg/ml) in TZM-bl [29]: > 25 µg/mL; IC50 (µg/ml) in TZM-bl [30]: 7.2 µg/mL; IC50 (µg/ml) in TZM-bl [31]: 7.3 µg/mL |
| 3869 (antibody) | > 25 | > 25 | > 25 | > 25 | > 25 | > 25 | > 25 | > 25 | > 25 | 3.1 | > 25 | > 25 | > 25 | > 25 | > 25 | > 25 | > 25 | > 25 | > 25 | > 25 | ID50/IC50 in TZM-bl [21]: > 25 µg/mL; IC50 (µg/ml) in TZM-bl [22]: > 25 µg/mL; IC50 (µg/ml) in TZM-bl [23]: > 25 µg/mL; ID50/IC50 in TZM-bl [24]: > 25 µg/mL; IC50 (µg/ml) in TZM-bl [25]: > 25 µg/mL; IC50 (µg/ml) in TZM-bl [26]: > 25 µg/mL; IC50 (µg/ml) in TZM-bl [27]: > 25 µg/mL; IC50 (µg/ml) in TZM-bl [28]: > 25 µg/mL; IC50 (µg/ml) in TZM-bl [29]: > 25 µg/mL; IC50 (µg/ml) in TZM-bl [30]: > 25 µg/mL; IC50 (µg/ml) in TZM-bl [31]: > 25 µg/mL |

— patent US20230140293A1
